Data from publication PMC4807222.

Assays:
[1] = biological target: V5-Myc, murine c-Myc mutant 20-AAAI (murine) (UniProt P01108); test: co-IP
[2] = biological target: V5-Myc, murine c-Myc mutant 20-PAAA (murine) (UniProt P01108); test: co-IP
[3] = biological target: V5-Myc, murine c-Myc mutant 20-PAAI (murine) (UniProt P01108); test: co-IP
[4] = biological target: c-Myc_(1–88) c-Myc-20-PYFY/AAAA-23 mutant (human) (UniProt P01106); test: SPR

Chain of Flag-tagged Pin1 (co-immunoprecipitation) (Q13526 whole entry): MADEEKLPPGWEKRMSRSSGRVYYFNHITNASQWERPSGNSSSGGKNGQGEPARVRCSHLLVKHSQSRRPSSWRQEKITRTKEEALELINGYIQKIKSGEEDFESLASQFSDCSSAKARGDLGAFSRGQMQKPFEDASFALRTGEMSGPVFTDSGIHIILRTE
Chain of V5-Myc, murine c-Myc mutant 20-PAAI (murine) (P01108 whole entry, change not shown): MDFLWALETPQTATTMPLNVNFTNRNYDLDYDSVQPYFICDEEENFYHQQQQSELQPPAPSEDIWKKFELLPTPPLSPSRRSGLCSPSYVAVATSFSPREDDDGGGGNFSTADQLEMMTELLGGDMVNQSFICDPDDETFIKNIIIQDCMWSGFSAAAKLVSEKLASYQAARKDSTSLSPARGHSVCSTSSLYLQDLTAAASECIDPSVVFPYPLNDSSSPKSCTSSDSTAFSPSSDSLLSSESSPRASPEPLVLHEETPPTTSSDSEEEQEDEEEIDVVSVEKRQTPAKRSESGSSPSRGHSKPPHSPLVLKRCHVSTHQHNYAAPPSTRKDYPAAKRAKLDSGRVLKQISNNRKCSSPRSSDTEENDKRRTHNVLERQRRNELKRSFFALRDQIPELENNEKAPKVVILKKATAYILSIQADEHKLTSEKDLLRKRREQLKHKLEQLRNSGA
Chain of V5-Myc, murine c-Myc mutant 20-PAAA (murine) (P01108 whole entry, change not shown): as above
Chain of V5-Myc, murine c-Myc mutant 20-AAAI (murine) (P01108 whole entry, change not shown): as above
Chain of full-length Pin1 (1–163) (Q13526 whole entry): as the sequence (Q13526 whole entry) above

Row | percent reduction of co-immunoprecipitated Pin1 against wild type [1] [%] | percent reduction of co-immunoprecipitated Pin1 against wild type [2] [%] | percent reduction of co-immunoprecipitated Pin1 against wild type [3] [%] | Kd [4] [µM] | Substance
1 | > 50 | > 50 | > 50 | – | Flag-tagged Pin1 (co-immunoprecipitation) (from UniProt Q13526 1-163) (enzyme)
2 | – | – | – | 15 | full-length Pin1 (1–163) (from UniProt Q13526 1-163) (enzyme)
